Experimental data as given in patent publication US20230257470A1 (published 2023).
Numbering of substitutions follows the chain as printed. Names may count otherwise.

What was measured:
human FcγRIIa(H) [1] = target: T1, human FcγRIIa(H) (human, UniProt P12318 36-217); assay: SPR, antibody captured, FcγR as analyte, capture-corrected binding amount
T1 construct: also called FcgRIIaH; FcγRIIa type H
T1 sequence: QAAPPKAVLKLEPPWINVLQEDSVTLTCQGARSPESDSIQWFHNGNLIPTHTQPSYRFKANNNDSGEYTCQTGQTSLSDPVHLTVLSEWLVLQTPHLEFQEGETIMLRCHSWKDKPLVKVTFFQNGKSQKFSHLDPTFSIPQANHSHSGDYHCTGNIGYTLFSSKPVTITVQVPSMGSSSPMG
Description: (§1) Interaction between each modified antibody and Fcγ receptor prepared in the manner described above was analyzed using the BIACORE™ T100 surface plasmon resonance system (GE Healthcare), BIACORE™ T200 surface plasmon resonance system (GE Healthcare), BIACORE™ A100 surface plasmon resonance system or BIACORE™ 4000 surface plasmon resonance system. HBS-EP+(GE Healthcare) was used for the running buffer, and measurements were carried out at 25° C. The chips used were chips in which antigen peptides, Protein A (Thermo Scientific), Protein A/G (Thermo Scientific) or Protein L (ACTIGEN® protein (Alltech or BioVision) were immobilized on the Series S Sensor Chip CM5 (GE Healthcare) or Series S Sensor Chip CM4 (GE Healthcare) by amine coupling, or chips in which preliminarily biotinylated antigen peptides were allowed to interact and then immobilized on the Series S Sensor Chip SA (certified) (GE Healthcare). The target antibodies were captured on these sensor chips, Fcγ receptor diluted with the running buffer was allowed to interact, followed by measurement of the amount of bound antibody. The amounts bound were compared between antibodies. However, since the amount of Fcγ receptor bound depends on the amount of captured antibody, the values used for comparison were first corrected by dividing the amount of Fcγ receptor bound by the captured amount of each antibody. Through reaction with 10 mM glycine-HCl at pH 1.5, the sensor chips were regenerated by washing off antibody captured on the sensor chips and used repeatedly.
(§2) Binding strength was evaluated according to the following method based on the results of analyzing the interaction with each FcγR. […] That value was then further multiplied by 100, and the resulting value was used as an indicator of relative binding activity to each FcγR.

human FcγRIIa(H) [2] = target: T2, human FcγRIIa(H) (human, UniProt P12318 36-217); assay: SPR (Biacore), captured antibody, FcγR analyte
T2 construct: also called FcgRIIaH; FcγRIIa type H
T2 sequence: T1 sequence
Description: Interaction between each modified antibody and Fcγ receptor prepared in the manner described above was analyzed using the BIACORE™ T100 surface plasmon resonance system (GE Healthcare), BIACORE™ T200 surface plasmon resonance system (GE Healthcare), BIACORE™ A100 surface plasmon resonance system or BIACORE™ 4000 surface plasmon resonance system. HBS-EP+(GE Healthcare) was used for the running buffer, and measurements were carried out at 25° C. The chips used were chips in which antigen peptides, Protein A (Thermo Scientific), Protein A/G (Thermo Scientific) or Protein L (ACTIGEN® protein (Alltech or BioVision) were immobilized on the Series S Sensor Chip CM5 (GE Healthcare) or Series S Sensor Chip CM4 (GE Healthcare) by amine coupling, or chips in which preliminarily biotinylated antigen peptides were allowed to interact and then immobilized on the Series S Sensor Chip SA (certified) (GE Healthcare). The target antibodies were captured on these sensor chips, Fcγ receptor diluted with the running buffer was allowed to interact, followed by measurement of the amount of bound antibody. The amounts bound were compared between antibodies. […]
Binding strength was evaluated according to the following method based on the results of analyzing the interaction with each FcγR. […]

human FcγRIIa(R) [3] = target: T3, human FcγRIIa(R) (human, UniProt P12318 36-217); assay: SPR, captured antibody, FcγR analyte; bound amount per captured antibody
T3 construct: also called FcgRIIaR; FcγRIIa type R
T3 chain: T1 sequence with H133R
Description: as §1, §2

human FcγRIIb [4] = target: T4, human FcγRIIb (human, UniProt P31994 43-217, limits assumed); assay: SPR (Biacore T100), antibody captured by Protein L, FcγR as analyte, pH 7.4, 25 C
T4 construct: Soluble analyte in SPR; also called hFcgRIIb; FcgRIIb
T4 sequence: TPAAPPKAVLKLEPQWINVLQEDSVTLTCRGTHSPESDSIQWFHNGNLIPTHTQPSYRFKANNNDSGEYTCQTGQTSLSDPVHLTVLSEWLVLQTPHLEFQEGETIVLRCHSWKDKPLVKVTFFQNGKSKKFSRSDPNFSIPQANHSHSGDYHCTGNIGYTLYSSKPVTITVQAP
Description: (§3) Interaction of these antibodies with FcγRIIa(R) and FcγRIIb was analyzed using the BIACORE™ T100 surface plasmon resonance system (GE Healthcare). Measurements were carried out at 25° C. using a buffer consisting of 20 mM N-(2-acetamido)-2-aminoethanesulfonic acid (ACES), 150 mM NaCl and 0.05% polysorbate 20 (Tween 20®) (pH 7.4) for the running buffer. The Series S Sensor Chip CM4 (GE Healthcare) was used after immobilizing Protein L by amine coupling. […] Antibody captured on the chip was washed by reacting with 10 mM glycine-HCl (pH 1.5) following measurement, and the chip regenerated in this manner was used repeatedly.
(§4) Measurement results were analyzed using the BIACORE™ Evaluation Software. Antibody was captured by Protein L, and the amount of change in a sensorgram before and after the antibody was captured was defined as X1. […]

[5] = target: T5, human FcγRIIa(R) (allotype R131) (human, UniProt P12318 36-217); assay: as above
T5 construct: Soluble analyte in SPR; also called hFcgRIIa(R); FcgRIIaR
T5 chain: T1 sequence with H133R
Description: as §3, §4

human FcγRIIa type R = target: T6, human FcγRIIa type R (human, UniProt P12318 36-217); assay: SPR (Biacore), antibody captured, FcγR as analyte, method of Example 14
T6 construct: also called FcγRIIaR; FcγRIIa(R)
T6 chain: T1 sequence with H133R
Description: (§5) Next, interaction between these antibodies and FcγR was analyzed kinetically using the BIACORE™ T100 (GE Healthcare). The interaction was measured at a temperature of 25° C. using HBS-EP+ (GE Healthcare) for the running buffer. The Series S Sensor Chip CM5 (GE Healthcare) was used after immobilizing Protein A by amine coupling. […] Antibody captured on the chip was washed by allowing 10 mM glycine-HCl (pH 1.5) to react following measurement. The chip regenerated in this manner was used repeatedly. The dissociation constant KD (mol/L) was calculated from the association rate constant ka (L/mol/s) and dissociation rate constant kd (1/s) as calculated by global-fitting the measurement results with a 1:1 Langmuir binding model using the BIACORE™ Evaluation Software.
(§6) Furthermore, KD(IIaR)/KD(IIb) and KD(IIaH)/KD(IIb) in the table respectively show the value obtained by dividing the KD value of each variant for FcγRIIaR by the KD value of each variant for FcγRIIb, and the value obtained by dividing the KD value of each variant for FcγRIIaH by the KD value of each variant for FcγRIIb.

human FcγRIIb [6] = target: T7, human FcγRIIb (human, UniProt P31994 43-217, limits assumed); assay: ratio of SPR KD values: KD for FcγRIIaH divided by KD for FcγRIIb
T7 construct: Whole entry (AAI46679.1); also called FcγIIB; FcgRIIb
T7 sequence: T4 sequence
Description: as §5
Furthermore, KD(IIaR)/KD(IIb) and KD(IIaH)/KD(IIb) in the table respectively represent the value obtained by dividing the KD value of each variant for FcγRIIaR by the KD value of each variant for FcγRIIb, and the value obtained by dividing the KD value of each variant for FcγRIIaH by the KD value of each variant for FcγRIIb.

human FcγRIa [7] = target: T8, human FcγRIa (human, UniProt P12314 16-292, limits assumed); assay: SPR (Biacore), antibody captured, FcγR as analyte, method of Example 14
T8 construct: also called CD64
T8 sequence (P12314 16-292 limits assumed): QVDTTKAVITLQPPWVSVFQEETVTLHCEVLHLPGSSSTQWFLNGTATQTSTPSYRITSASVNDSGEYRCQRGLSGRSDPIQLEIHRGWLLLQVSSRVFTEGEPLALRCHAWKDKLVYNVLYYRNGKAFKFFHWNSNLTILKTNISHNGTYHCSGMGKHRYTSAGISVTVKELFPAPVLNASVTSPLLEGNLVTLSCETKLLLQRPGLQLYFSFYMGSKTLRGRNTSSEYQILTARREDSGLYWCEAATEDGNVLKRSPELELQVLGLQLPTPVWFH
Description: as §5, §6

human FcγRIIb [8] = target: T9, human FcγRIIb (human, UniProt P31994 43-217); assay: as above
T9 construct: also called FcγRIIb extracellular region; FcγIIB
T9 sequence: T4 sequence
Description: as §5, §6

human FcγRIIb [9] = target: T9, human FcγRIIb; assay: ratio of SPR KD values for FcγRIIb; reference: parent polypeptide IL6R-F11/IL6R-L
Description: as §5, §6

human FcγRIIb [10] = target: T9, human FcγRIIb; assay: ratio of SPR KD values of the same variant: KD for FcγRIIaH / KD for FcγRIIb
Description: as §5, §6

human FcγRIIb [11] = target: T9, human FcγRIIb; assay: ratio of SPR KD values of the same variant: KD for FcγRIIaR / KD for FcγRIIb
Description: as §5, §6

human FcγRIIIa(F) [12] = target: T10, human FcγRIIIa(F) (human, UniProt P08637 17-208, limits assumed); assay: SPR (Biacore), antibody captured on Protein L, human FcgR injected, pH 7.4, 25 C; normalised to captured amount x 1500
T10 construct: also called hFcgRIIIa(F); allotype F158
T10 sequence (P08637 other isoform, or with tags, fused parts or gaps limits assumed): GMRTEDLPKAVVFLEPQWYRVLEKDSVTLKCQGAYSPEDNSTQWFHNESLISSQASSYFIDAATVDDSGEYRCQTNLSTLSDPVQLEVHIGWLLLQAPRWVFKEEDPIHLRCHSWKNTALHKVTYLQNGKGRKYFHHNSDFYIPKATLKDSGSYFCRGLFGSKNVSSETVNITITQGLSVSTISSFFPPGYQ
Description: Binding activity between the antibodies and human FcγRIa, FcγRIIa(H), FcγRIIa(R), FcγRIIb and FcγRIIIa(F) (hereinafter referred to as human FcγRs) was evaluated using the BIACORE™ T100 or T200 surface plasmon resonance system (GE Healthcare). The antibodies being tested were captured by Protein L (ACTIGEN® protein (Alltech)) that was immobilized in suitable amounts on the CM4 Sensor Chip (GE Healthcare) by amine coupling. Next, the diluted human FcγRs and a running buffer used as a blank were injected to allow interaction with the antibodies captured on the sensor chip. A buffer consisting of 20 mmol/L N-(2-acetamido)-2-aminoethanesulfonic acid (ACES), 150 mmol/L NaCl and 0.05% (w/v) polysorbate 20 (Tween 20®) (pH 7.4) was used for the running buffer, and this buffer was also used to dilute the human FcγRs. 10 mmol/L glycine-HCl (pH 1.5) was used to regenerate the sensor chip. All measurements were carried out at 25° C.
Binding activity to human FcγRs can be represented by the relative binding activity to human FcγRs. Antibody was captured by Protein L, and the amount of change in a sensorgram before and after the antibody was captured was defined as X1. […]

human FcγRIIa(R) [13] = target: T11, human FcγRIIa(R) (human, UniProt P12318 36-217); assay: SPR (Biacore), antibody captured on chip, FcgR injected, HBS-EP+, 25 C; bound amount corrected by captured amount; reference itself
T11 construct: also called hFcgRIIa(R); FcγRIIa type R
T11 chain: T1 sequence with H133R

human FcγRIa [14] = target: T12, human FcγRIa (human, UniProt P12314 16-292, limits assumed); assay: as above
T12 construct: also called hFcgRIa
T12 sequence (P12314 16-292 limits assumed): as the sequence (P12314 16-292 limits assumed) above

human FcγRIIb [15] = target: T13, human FcγRIIb (human, UniProt P31994 43-217, limits assumed); assay: as above
T13 construct: also called hFcgRIIb
T13 sequence: T4 sequence

human FcγRIIIa(F) [16] = target: T10, human FcγRIIIa(F); assay: as above
human FcγRIIa(H) [17] = target: T14, human FcγRIIa(H) (human, UniProt P12318 36-217); assay: as above
T14 construct: also called hFcgRIIa(H); FcγRIIa type H
T14 sequence: T1 sequence

B1: GpH7-B3 N325Y/GpL16-k0 (antibody, human IgG1)
heavy: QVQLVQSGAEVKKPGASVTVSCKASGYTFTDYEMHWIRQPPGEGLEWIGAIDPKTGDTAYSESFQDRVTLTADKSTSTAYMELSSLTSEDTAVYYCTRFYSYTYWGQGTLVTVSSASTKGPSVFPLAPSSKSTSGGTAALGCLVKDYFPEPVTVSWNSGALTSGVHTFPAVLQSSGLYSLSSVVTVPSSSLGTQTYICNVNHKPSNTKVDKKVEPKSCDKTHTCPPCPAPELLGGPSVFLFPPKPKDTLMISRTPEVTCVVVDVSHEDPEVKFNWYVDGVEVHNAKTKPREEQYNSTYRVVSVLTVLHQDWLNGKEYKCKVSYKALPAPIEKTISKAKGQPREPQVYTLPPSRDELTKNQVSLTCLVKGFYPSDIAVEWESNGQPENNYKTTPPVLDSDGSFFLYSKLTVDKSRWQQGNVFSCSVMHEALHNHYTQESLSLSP
light: DIVMTQSPLSLPVTPGEPASISCQASESLVHSNRNTYLHWYLQKPGQSPQLLIYKVSNRFSGVPDRFSGSGSGTDFTLKISRVEAEDVGVYYCSQNTHVPPTFGQGTKVEIE
notes: Anti-glypican-3 human IgG1 with B3 constant region (G1d with K439E); also called B3 variant; copies: 2 + 2
Human FcγRIIa(H) [1]
  relative binding activity: -9 % of GpH7-B3/GpL16-k0

B2: GpH7-B3 variant V266R/GpL16-k0 (antibody, human IgG1)
heavy: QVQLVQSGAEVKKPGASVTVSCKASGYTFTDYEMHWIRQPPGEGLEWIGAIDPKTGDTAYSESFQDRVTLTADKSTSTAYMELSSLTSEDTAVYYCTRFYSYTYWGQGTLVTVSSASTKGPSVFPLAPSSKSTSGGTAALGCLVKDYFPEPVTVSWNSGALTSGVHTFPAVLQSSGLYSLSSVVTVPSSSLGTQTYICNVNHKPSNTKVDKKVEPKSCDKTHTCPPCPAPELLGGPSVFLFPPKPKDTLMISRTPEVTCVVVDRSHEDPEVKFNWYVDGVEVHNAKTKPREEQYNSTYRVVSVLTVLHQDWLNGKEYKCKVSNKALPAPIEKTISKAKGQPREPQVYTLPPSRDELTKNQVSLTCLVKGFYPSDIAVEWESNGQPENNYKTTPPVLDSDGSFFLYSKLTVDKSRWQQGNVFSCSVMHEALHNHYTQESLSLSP
light: B1 light
notes: anti-glypican-3 IgG1; alteration introduced into GpH7-B3; copies: 2 + 2
Human FcγRIIa(H) [2]
  relative binding activity: 1 % of GpH7-B3/GpL16-k0

B3: GpH7-B3 G236K/GpL16-k0 (antibody, human IgG1)
heavy: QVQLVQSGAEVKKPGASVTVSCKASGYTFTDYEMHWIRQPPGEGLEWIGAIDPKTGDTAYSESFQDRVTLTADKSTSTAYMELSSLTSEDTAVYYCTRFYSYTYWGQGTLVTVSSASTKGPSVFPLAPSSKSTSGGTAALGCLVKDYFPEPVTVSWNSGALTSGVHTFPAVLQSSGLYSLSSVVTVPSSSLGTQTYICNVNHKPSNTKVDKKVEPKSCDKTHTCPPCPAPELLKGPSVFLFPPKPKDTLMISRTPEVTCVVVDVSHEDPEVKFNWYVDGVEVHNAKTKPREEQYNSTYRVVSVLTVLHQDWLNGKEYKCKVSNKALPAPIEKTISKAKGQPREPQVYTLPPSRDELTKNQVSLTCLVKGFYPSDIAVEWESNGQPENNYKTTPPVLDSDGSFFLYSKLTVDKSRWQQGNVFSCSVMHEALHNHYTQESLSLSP
light: B1 light
notes: anti-glypican-3 IgG1; B3 constant region (G1d with K439E); also called B3 variant; copies: 2 + 2
Human FcγRIIa(R) [3]
  relative binding activity: 9 % of GpH7-B3/GpL16-k0

B4: GpH7-B3 variant V266K/GpL16-k0 (antibody, human IgG1)
heavy: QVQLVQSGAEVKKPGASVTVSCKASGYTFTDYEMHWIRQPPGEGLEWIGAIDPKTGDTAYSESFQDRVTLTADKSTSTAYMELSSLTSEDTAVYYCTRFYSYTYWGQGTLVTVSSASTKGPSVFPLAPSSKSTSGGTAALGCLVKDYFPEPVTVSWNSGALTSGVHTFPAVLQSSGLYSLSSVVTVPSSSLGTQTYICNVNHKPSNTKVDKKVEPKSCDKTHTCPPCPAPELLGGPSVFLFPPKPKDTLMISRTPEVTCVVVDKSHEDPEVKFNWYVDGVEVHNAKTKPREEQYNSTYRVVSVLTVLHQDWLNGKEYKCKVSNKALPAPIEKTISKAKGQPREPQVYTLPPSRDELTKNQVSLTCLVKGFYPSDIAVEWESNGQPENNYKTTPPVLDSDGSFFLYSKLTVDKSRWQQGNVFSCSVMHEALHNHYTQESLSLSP
light: B1 light
notes: as for B2
Human FcγRIIa(H) [2]
  relative binding activity: 1 % of GpH7-B3/GpL16-k0

B5: GpH7-B3 L234G/GpL16-k0 (antibody, human IgG1)
heavy: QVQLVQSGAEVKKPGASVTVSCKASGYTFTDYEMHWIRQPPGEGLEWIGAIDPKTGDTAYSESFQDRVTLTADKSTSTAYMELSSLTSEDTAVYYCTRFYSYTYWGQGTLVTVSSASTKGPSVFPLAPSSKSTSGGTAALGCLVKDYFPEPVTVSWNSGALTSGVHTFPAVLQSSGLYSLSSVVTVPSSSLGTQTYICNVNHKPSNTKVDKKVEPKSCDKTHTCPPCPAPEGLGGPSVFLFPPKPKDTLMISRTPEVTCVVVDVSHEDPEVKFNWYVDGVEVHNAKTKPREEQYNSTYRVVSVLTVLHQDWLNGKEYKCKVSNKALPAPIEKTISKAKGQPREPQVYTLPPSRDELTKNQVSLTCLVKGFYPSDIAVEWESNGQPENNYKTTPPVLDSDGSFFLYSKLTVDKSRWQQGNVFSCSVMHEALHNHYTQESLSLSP
light: B1 light
notes: as for B3
Human FcγRIIa(R) [3]
  relative binding activity: 9 % of GpH7-B3/GpL16-k0

B6: antibody containing VH3-IgG1-F652 for the heavy chain and L(WT)-CK for the light chain (antibody)
heavy: QVQLQESGPGLVKPSETLSLTCAVSGHSISHDHAWSWVRQPPGEGLEWIGFISYSGITNYNPSLQGRVTISRDNSKNTLYLQMNSLRAEDTAVYYCARSLARTTAMDYWGEGTLVTVSSASTKGPSVFPLAPSSKSTSGGTAALGCLVKDYFPEPVTVSWNSGALTSGVHTFPAVLQSSGLYSLSSVVTVPSSSLGTQTYICNVNHKPSNTKVDKKVEPKSCDKTHTCPPCPAPELLGGDSVFLFPPKPKDTLYISRTPEVTCVVVDVSHEDPEVKFNWYVDGVEVHNAKTKPREEQYNSTYRVVSVLTVLHQDWLNGKEYKCKVSNKALPAPIEKTISKAKGQPREPQVYTLPPSRDELTKNQVSLTCLVKGFYPSDIAVEWESNGQPENNYKTTPPVLDSDGSFFLYSKLTVDKSRWQQGNVFSCSVMHEALHYHYTQKSLSLSP
light: not shown
notes: VH3-IgG1-F11 with P238D (EU numbering)
Human FcγRIIb [4]
  BINDING AMOUNT (RU): 64 RU
[5]
  BINDING AMOUNT (RU): 9.1 RU

B7: IL6R-PD082/IL6R-L (antibody, human IgG1)
heavy: B6 heavy with G239F
light: DIQMTQSPSSLSASVGDRVTITCRASQDISSYLNWYQQKPGKAPKLLIYYTSRLHSGVPSRFSGSGSGTDFTFTISSLQPEDIATYYCQQGNTLPYTFGQGTKVEIK
notes: Alteration is counted against IL6R-F11; also called G237F/P238D; P238D/G237F
Human FcγRIIa type R
  Kd: 1.4 µM

B8: IL6R-BP143/IL6R-L (antibody, human IgG1, name in EU numbering)
heavy: B6 heavy with L236Y, Y254M, K328A, Y436N, K441E
light: B7 light
notes: Alterations introduced into IL6R-B3 (EU numbering)
Human FcγRIIb [6]
  KD(IIaH)/KD(IIb): 4.71

B9: IL6R-PD080/IL6R-L (antibody)
heavy: B6 heavy with G239D
light: B7 light
notes: Alteration is counted against IL6R-F11; also called G237D/P238D; P238D/G237D
Human FcγRIa [7]
  Kd: 0.14 µM
Human FcγRIIb [8]
  Kd: 2 µM
Human FcγRIIa type R
  Kd: 21 µM
Human FcγRIIb [9]
  KD(IIb) of parent polypeptide/KD(IIb) of altered polypeptide: 3.5
Human FcγRIIb [10]
  KD(IIaH)/KD(IIb): 12.8
Human FcγRIIb [11]
  KD(IIaR)/KD(IIb): 10.7

B10: IL6R-BP147/IL6R-L (antibody, human IgG1, name in EU numbering)
heavy: B6 heavy with L236Y, G239D, Y254M, K328A, A332K, Y436N, K441E
light: B7 light
notes: as for B8
Human FcγRIIb [6]
  KD(IIaH)/KD(IIb): 77.7

B11: antibody containing VH3-IgG1-F1356 for the heavy chain and L(WT)-CK for the light chain (antibody)
heavy: B6 heavy with G238R, D240P, L330R, Y438V
light: not shown
Human FcγRIIIa(F) [12]
  BINDING AMOUNT (RU): 4.09 RU

B12: GpH7-G1d/GpL16-k0 (antibody)
chain 1: not shown
chain 2: DIVMTQSPLSLPVTPGEPASISCQASESLVHSNRNTYLHWYLQKPGQSPQLLIYKVSNRFSGVPDRFSGSGSGTDFTLKISRVEAEDVGVYYCSQNTHVPPTFGQGTKVEIERTVAAPSVFIFPPSDEQLKSGTASVVCLLNNFYPREAKVQWKVDNALQSGNSQESVTEQDSKDSTYSLSSTLTLSKADYEKHKVYACEVTHQGLSSPVTKSFNRGEC
Human FcγRIIa(R) [13]
  relative binding activity (amount bound / amount bound by GpH7-G1d/GpL16-k0 x 100): 100
Human FcγRIa [14]
  relative binding activity (amount bound / amount bound by GpH7-G1d/GpL16-k0 x 100): 100
Human FcγRIIb [15]
  relative binding activity (amount bound / amount bound by GpH7-G1d/GpL16-k0 x 100): 100
Human FcγRIIIa(F) [16]
  relative binding activity (amount bound / amount bound by GpH7-G1d/GpL16-k0 x 100): 100
Human FcγRIIa(H) [17]
  relative binding activity (amount bound / amount bound by GpH7-G1d/GpL16-k0 x 100): 100
